Test [1] deals with T1, TROP2 antigen (extracellular region of TROP2, expressed in 293F cells) (human, UniProt P09758 27-274).
T1 construct: extracellular domain; The antigen was coated on ELISA plates; For the Octet assay it was biotin-labelled and immobilized on streptavidin sensors; also called TROP2 protein
T1 sequence (looked up): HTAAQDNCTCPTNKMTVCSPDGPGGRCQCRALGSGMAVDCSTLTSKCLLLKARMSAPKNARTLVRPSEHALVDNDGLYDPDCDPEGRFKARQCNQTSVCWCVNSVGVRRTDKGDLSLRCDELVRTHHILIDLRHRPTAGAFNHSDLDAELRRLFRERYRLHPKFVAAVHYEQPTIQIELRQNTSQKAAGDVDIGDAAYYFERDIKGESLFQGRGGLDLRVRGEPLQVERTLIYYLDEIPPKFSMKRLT
Put plainly: ELISA, TROP2-coated plate, anti-human Fc HRP. In general terms: An ELISA detects its analyte on a solid surface through an enzyme-linked reagent.

Test [2] concerns the target T1, TROP2 antigen (extracellular region of …). Description: competition ELISA on TROP2-coated plate; competitor: 7F11-humanized-biotin.
The target in test [3] is T2, TROP2 on BXPC-3 and MCF-7 cells (human, UniProt P09758 27-323).
T2 construct: whole, on cells; also called BxPC-3 cells; MCF-7 cells (positive cells)
T2 sequence (looked up): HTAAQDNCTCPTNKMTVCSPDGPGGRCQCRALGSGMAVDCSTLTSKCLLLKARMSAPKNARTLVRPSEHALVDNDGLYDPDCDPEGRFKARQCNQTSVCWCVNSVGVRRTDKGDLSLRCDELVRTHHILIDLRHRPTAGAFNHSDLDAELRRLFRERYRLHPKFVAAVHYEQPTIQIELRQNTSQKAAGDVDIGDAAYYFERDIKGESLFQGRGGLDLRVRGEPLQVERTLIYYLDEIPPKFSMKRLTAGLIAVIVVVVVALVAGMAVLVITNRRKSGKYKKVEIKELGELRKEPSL
Description: flow cytometry on MCF-7 cells, 1 hr at 4 C, FITC-labelled secondary antibody. Background: In flow cytometry, cells or beads pass a laser one at a time.

Test [4] deals with T2, TROP2 on BXPC-3 and MCF-7 cells. Put plainly: flow cytometry on BXPC-3 cells, 1 hr at 4 C, FITC-labelled secondary antibody.
Test [5] has as its target T1, TROP2 antigen (extracellular region of …). Description: BLI (ForteBio Octet), biotin-labelled antigen on streptavidin sensor, antibody in solution. The text has this:
Pall ForteBio Octet optical analysis technology platform is used to evaluate the absolute affinity of antibody-antigen binding. In this method, the biotin-labeled antigen is immobilized on the surface of the streptavidin biosensor chip, the baseline is balanced for 180 seconds, and then it binds with the antibody diluted in the solution concentration gradient for 30 seconds, which increases the optical thickness of the chip, resulting in The wavelength shifts (Δλ), and then enters the dissociation phase of 30 sec. The interaction between the Trop2 antigen and the corresponding antibody is measured in real time, and the specificity of binding, binding rate, dissociation rate or sample concentration are precisely and accurately measured at each concentration. After summarizing the k-on and k-off values under at least 5 concentration gradients, the KD binding constant is obtained.
On the technique in general: BLI is a label-free optical method that tracks binding on a fibre tip over time.

The target is the same in test [6]. Put plainly: competition ELISA on TROP2-coated plate; competitor: 0.5 ng/ml 4D3-humanized-biotin. The procedure:
The 4D3-humanized antibody was labeled with biotin, and the inflection point value of the binding curve was determined by ELISA to be 0.5 ng/ml. Prepare an ELISA blocking solution containing 0.5 ng/ml 4D3 biotin-labeled antibody, and configure 50 ug/ml of competing antibodies 4D3-chimeric and 4D3-humanized on the basis of this solution. Add the solution containing biotin-labeled antibody and competing antibody to A1˜A12, 150 ul per well, then aspirate 50 ul and add to B2˜B12, mix well with the pre-added biotin antibody solution with a volume of 100 ul, and then dilute 3 times in sequence To H1˜H12, incubate at 37° C. for 1 hr, then wash and incubate the […], incubate at 37° C. for 1 hr, then wash 3 times, perform color development for 25 min and read the value.
FIG. 12: 4D3-humanized-biotin antibodies compete with ch4D3 and hum4D3 antibodies at 0.02-50 ug/ml, respectively. The two competing antibodies show the same degree of competitive activity and bind to the same epitope.

The target of test [7] is T2, TROP2 on BXPC-3 and MCF-7 cells. Description: flow cytometry on BXPC-3 cells, 1 hr at 4 C, FITC-labelled secondary antibody. This is another data set of the same source.
Test [8] deals with T1, TROP2 antigen (extracellular region of …). Description: ELISA, TROP2-coated plate, chimeric antibody, anti-human Fc HRP. The procedure: (§1) Dilute the chimeric antibody to a concentration of 50 ug/ml, add it to wells A1˜H1 on the TROP2-coated ELISA plate, and then perform a 3-fold horizontal dilution from A1 to A12; incubate at 37° C. for 1 hr, then rinse and add Mouse anti-human Fc HRP-labeled antibody was incubated at 37° C. for color development.

The target is the same in test [9]. Put plainly: ELISA on a TROP2-coated plate, anti-human Fc HRP detection. The procedure: as §1

B1: 7F11 humanized antibody (antibody, V domains shown)
VH: QVQLVQSGAEVKKPGASVKVSCKASGYTFTDHVISWVRQATGQGLEWMGQIYPGSDNSYYAQKFQGRVTLTADKSINTAYMELSSLRSEDTAVYYCAREGYGYGKNGVGYAMDYWGQGTLVTVSS
VL: DIVMTQSPDSLAVSLGERATINCKASQSVSNDVVWYQQKPGQPPKLLIYYASNRYTGVPDRFSGSGYGTDFTLTISSLQAEDVAVYYCQQDYSSPWTFGGGTKVEIKR
notes: also called Hu7F11; hu7F11
Usually EC50 stands for the midpoint of the concentration-response curve. A higher EC50 goes with a less potent agent. The term EC50 (read off the curve) denotes the concentration needed to bring the measured effect to its halfway point. A high value points to a less potent agent. A word on the Kd: it is the free concentration of one partner at which half of the binding sites on the other are occupied at equilibrium, for simple one-to-one binding. A low value points to a tighter complex. The koff is a measure of how fast the partners let go of each other. The low end stands for slow dissociation, the high end for fast dissociation. What is called kon is a measure of how fast the partners come together. Low readings indicate slow association, high ones fast association. B1: in test [1], the EC50 came to 0.0601 µg/mL. The midpoint of the response in test [2], the EC50, lay at 0.856 µg/mL. In addition, in test [3], the “EC50 (read off the curve)” value is approximately 0.04 µg/mL. Moreover, the “EC50 (read off the curve)” value in [4] is approximately 0.05 µg/mL. In test [5], this molecule came in with a Kd of 0.0994 nM, a koff of 1.85e-05 s⁻¹ and a kon of 186000 M⁻¹ s⁻¹.

B2: 4D3 humanized antibody (antibody, V domains shown)
VH: QVQLVQSGAEVKKPGASVKLSCKASGYTFTSFDINWVRQAPEQRLEWMGWIFPGDGNTKYSQKFQGRATITRDTSASTAYMELSSLRSEDTAVYYCVRGEALYYFDYWGQGTLVTVSS
VL: DIQMTQSPSSLSASVGDRVTITCRASQDINKYLAWYQQKPGKVPKLLIYSTSTLQSGVPSRFSGSGSGTDFTLTISSLQPEDVATYYCLQYDDLFTFGQGTKLEIKR
notes: also called Hu4D3; hu4D3
In turn, B2 yielded an EC50 in test [1] of 0.0502 µg/mL. Further, the EC50 in test [6] was found to be 0.326 µg/mL. The half-maximal effective concentration (EC50 (read off the curve)) in [7] was approximately 0.04 µg/mL. In test [5], the Kd is 30.7 nM, the koff stood at 0.00428 s⁻¹ and the kon was 139000 M⁻¹ s⁻¹.

B3: 4D3 chimeric antibody (antibody, human IgG1, kappa, V domains shown)
VH: QVQLQQSGAELVKPGASVKLSCKASGYTFTSFDINWVRQRPEQGLEWIGWIFPGDGNTKSNEKFKGKATLTTDKSSSTAYMQLSRLTSEDSAVYFCVRGEALYYFDYWGPGTTLTVSS
VL: DIQMTQSPSSLSASLGGKVTITCKPSQDINKYIAWYQHKPGKGPRLLIHSTSTLQPGIPSRFSGSGSGRDYSFTISNLEPEDIATYYCLQYDDLFTFGSGTKLEIKR
notes: The entries begin with a leader (signal) peptide; also called ch4D3
The molecule B3 showed a concentration giving a half-maximal response (EC50) in test [1] of 0.056 µg/mL. In [8], this molecule had an EC50 of 0.047 µg/mL. The “EC50 (read off the curve)” value in test [9] is approximately 0.05 µg/mL. Also, in test [6], the midpoint of the response, the EC50, lay at 0.336 µg/mL. Besides, in test [5], binding was put at a Kd of 6.89 nM, the koff stood at 0.00162 s⁻¹ and the kon amounted to 235000 M⁻¹ s⁻¹.

B4: 7F11 chimeric antibody (antibody, human IgG1, kappa, V domains shown)
VH: QVQLQQSGPEVVKPGASVKMSCKASGYTFTDHVISWVKQRTGQGLEWIGQIYPGSDNSYYSEKLKDKATLTADKSSNTAYMQLVSLTSEDSAVYFCAREGYGYGKNGVGYAMDYWGQGTSVTVSS
VL: SIVMTQTPKFLLVSAGDRVTITCKASQSVSNDVVWYQQKPGQSPKLLIYYASNRYTGVPDRFTGSGYGTDFTFTISTAQAEDLAVYFCQQDYSSPWTFGGGTKLEIKR
notes: The entries begin with a leader (signal) peptide; also called ch7F11
For the molecule B4, it took 0.061 µg/mL to reach a half-maximal effect in [1] (EC50). Moreover, the EC50 in test [8] was 0.071 µg/mL. Besides, in test [9], the “EC50 (read off the curve)” value was approximately 0.07 µg/mL. The molecule further displayed a concentration for a half-maximal effect (EC50) in [2] of 0.732 µg/mL. In [5], this molecule displayed a Kd of 0.0611 nM, a koff of 1.45e-05 s⁻¹ and a kon of 243000 M⁻¹ s⁻¹.

(Values after US20230242665A1 (SYSTIMMUNE, published 2023).)
